Results taken from the RNAGym collection of RNA variant scans (doi:10.7554/elife.80360).

B1: Hammerhead Ribozyme (parent)
chain: ACCGGAUGUGCUUUCCGGUCUGAUGAGUCCGUGAGGACGAAACAG

Variants of: B1
Assay: self-cleavage, relative activity (ratio to wild type); higher = more cleavage; co-transcriptional

Variant	self-cleavage
U21A A40C	0.315
A6C G25C	0.24
G33C A41G	0.273
C20A G22A	0.287
G18A C29A	0.44
C16G G27C	0.35
G17A U28G	0.567
U9A G45A	0.707
U14C A37C	0.436
G5A A44U	0.532
U24C U32C	1.2
U9C C16U	1.41
U14A G18C	0.456
G8C C20A	0.461
U32A C43U	0.595
A23C A44U	0.227
U12A C16A	1.03
G5C C30G	0.314
G33A G36A	0.894
G5C G33C	0.58
A6C C15A	0.761
U7G U12G	1.23
U7G U12C	1.42
U19C U28A	0.524

Variant	self-cleavage
G18C G22U	0.29
G18C G22A	0.342
C2U U24G	1.29
G31A A34G	0.846
C2G A42U	0.292
A23U C30G	0.345
G18C A37U	0.483
U13A C16U	1.02
U13A C16G	1.27
U13C A37G	1.26
U7A G33U	1.14
U19A G31U	0.402
A6U A23G	0.249
A1C A44U	0.377
U9C G35U	0.713
G10C U21C	0.673
A23U C38G	0.357
U13G C16U	0.836
U12G A26U	0.708
G27U A41C	0.328
U21C A37G	0.866
U13A A34C	1.5
U9G C16G	0.456
G8C A42U	0.266

Variant	self-cleavage
G8C A42C	0.363
A1U C16A	0.419
U21G G33U	0.798
A23G A37U	0.28
G8C U24G	1.05
G4A G45A	0.348
C2U U7G	1.72
G18U U21C	0.544
C2G G25U	0.272
G18A G33U	0.726
G17C G22C	0.326
A26U A40G	0.344
A6G G8C	0.708
C3A G36C	0.338
G8A	1.05
C11G U24A	0.829
A1G A37U	1.02
C15G U32A	0.875
A6U C15U	0.708
G18U C30U	0.849
G18A A37C	0.611
G39A G45A	0.371
G5C A23U	0.221
C16G C29U	0.646

Variant	self-cleavage
A1C U19A	0.344
G25A G35C	0.347
G17C U28C	0.276
G8C U21C	0.611
G22C G45U	0.384
G4C A6U	0.281
G27C A40C	0.411
U9G U24A	0.928
G8U A26U	0.935
U13A G17A	1.16
G5C G27A	0.351
G5A G35A	0.642
C29A A41C	0.355
A42U A44C	0.96
A42U A44U	0.276
G25C C29G	0.334
C11U U21G	0.563
C11U U21C	0.561
G4A A41G	0.287
G10A U14G	1.04
U9A A44U	0.557
G4A A26G	0.35
U12C G39C	0.327
G8C U9A	0.907

Variant	self-cleavage
G8U C20U	0.551
A23G A34U	0.364
A23G A34G	0.35
G18A G36A	0.544
A40G A42U	0.253
A1U C3G	0.418
U12A C20G	0.312
C29A U32A	0.643
G17U A41U	0.327
C11U U32A	0.889
U13G G45A	0.719
C2U A40G	0.284
C3A A44U	0.392
A34G A44C	0.41
G33U G36A	0.765
G5A U14C	1.49
C29G A41G	0.338
C29G A41C	0.269
C11G G17A	0.511
A1C G39A	0.438
C11U G45A	0.515
G4C G8A	0.543
G17C C20G	0.279
G10U A41C	0.422

Variant	self-cleavage
A23C A26C	0.376
A23G C38A	0.328
U24G A40G	0.392
G5A C11U	0.804
U12G A44G	1.57
C20G G33U	0.367
G10A A23G	0.34
G4C G36U	0.281
G22C U28A	0.351
U24A C38G	0.645
G5U G25U	0.355
G22A G45A	0.369
A26C G45C	0.398
A1G C15U	1.68
G8A A41C	0.353
A26U A41C	0.295
C16A C29U	1.06
U7A G18A	0.539
C16A G45U	0.563
C2A A40G	0.324
C16G G39C	0.368
G8A A34C	0.936
G8A A34G	1.06
U24A G33U	0.78

Variant	self-cleavage
U13A G36C	1.03
C20A A44U	0.323
U19C C38G	0.407
U21C A34G	0.653
C15A U28C	0.425
C20A G39C	0.393
U24G A44U	0.608
G39A C43U	0.341
A6C G36C	0.326
C2A U9G	0.44
A1G C38G	0.865
U12A C30G	0.859
A37C G39U	0.281
C16U U28C	0.874
C3G G25C	0.33
G18A G35A	0.536
C30G C38G	0.493
C29A C43U	0.396
C20G A26U	0.29
C3A C15G	0.346
G8C U28G	1.05
U7A U28C	1.26
U7A U28G	0.758
